Test results taken from doi:10.1101/2025.09.09.675266.
Values joined by “and” are separate entries in the source; they are usually repeats but may differ in a detail not shown here. Equal values may be shown once. Read-outs that look alike come from different tables or passages of the source.

Legend:
[1] = molecular target: RSV IN (1-269) (Rous sarcoma virus (Prague A)); experiment: SEC
[2] = molecular target: RSV IN (1-278 aa) (Rous sarcoma virus (Prague A)); experiment: SEC
[3] = molecular target: RSV IN (1-278 aa) (Rous sarcoma virus (Prague A))

Substance	stoichiometry N [1]	stoichiometry N [2]	stoichiometry N [3]
RSV IN (1-269) (domain or fragment)	4	–	–
RSV IN (1-278 aa) (domain or fragment)	–	4 and 8	2
